# Assay: soluble on expression in E. coli; label from the status in PepcDB or PDB records
row,Sequence,soluble on expression in E. coli
1,AVANILNRDYNRAQEILNGIKNPDATTYYLMAVVAARTNNLDVVINSLRESISLDSSMMKKAATDLEFAKYANDGGFKSLLRH,not soluble
2,MDLNATNYIRGCQSKTYDGKIFPGKGGEKQWICKDTIIHGDTNGACIPPRTQNLCVGELWDKSYGGRSNIKNDTKELLKEKIKNAIHKETELLYEYHDTGTAIISKNDKKGQKGKNDPNGLPKGFCHAVQRSFIDYKNMILGTSVNIYEHIGKLQEDIKKIIEKGTPQQKDKIGGVGSSTENVNAWWKGIEREMWDAVRCAITKINKKNNNSIFNGDECGVSPPTGNDEDQSVSWFKEWGEQFCIERLRYEQNIREACTINGKNEKKCINSKSGQGDKIQGACKRKCEKYKKYISEKKQEWDKQKTKYENKYVGKSASDLLKENYPECISANFDFIFNDNIEYKTYYPYGDYSSICSCEQVK,soluble
3,MKLASYLQENIVVEKNGRFTIPIKKQYRSKVSGTVIDTSSSGATVFMEPKEVGALYEQLDDLLAAESYEVETILYTLTASVLAIEKELHLAMDIMHHYDVLFAKAKYGRSIDGVIPLEHHHHHH,not soluble
4,MRVLVKLSGEALSGEGGRGFDPERVNYIVNEIKSAIEEGFKIGIVVGAGNLFRGVELKNLTMTRADQIGLLGTVMNSVYLKDIFERSGLKARIYSQIVNLPDVERVNYDSIESALRENSILIFAGGTSNPFFTTDTAAVLRAQEMRAKLVVKATKVDGVYDKDPKKFPDAKKIPHLTFSEAMKMGLKVMDAEAFALCKKLGITVKVINFFEPGTLLKALKGEDVGSTVVPD,soluble
5,MRIEVTIAKTSPLPAGAIDALAGELSRRISHHFPENLGNVTVRYATANNLSVIGASKEDKERISEILQETWESADDWFINE,not soluble
6,MISAGIDPGTGSYDVVAIEDGKVVFRKNIPTEEVRASPDVIVEVIEESGAEVAAGLSGYGLPVKRFSELDEVDLLLMTLNFDSERAIGLRNIIKAVKERNVNLYTVPAVIHLPTVPPWRKMNRIDIGTADKLCSAVLAVAKLSEEEELTKLNFILAEVGEGFNAFIAVRNGRIVDGMGGTTSFPGYSSLGAMDAELAYIIGEFPKKLIFSGGVKSFASEWKVNENEVTNILSEFVLKGIRAMEVSTDADFYMLSGRFAPDVLRKLRGEGKEVRLLGGFGRGKQSAQGAAIIANAIAGGEYREIVDYMRIFEAKGTLLDYITSDIMEYVRRGLKRRGD,not soluble
7,MGSSHHHHHHSSGLVPRGSEVVIVSATRTPIGSFLGSLSLLPATKLGSIAIQGAIEKAGIPKEEVKEAYMGNVLQGGEGQAPTRQAVLGAGLPISTPCTTINKVCASGMKAIMMASQSLMCGHQDVMVAGGMESMSNVPYVMNRGSTPYGGVKLEDLIVKDGLTDVYNKIHMGSCAENTAKKLNIARNEQDAYAINSYTRSKAAWEAGKFGNEVIPVTVTVKGQPDVVVKEDEEYKRVDFSKVPKLKTVFQKENGTVTAANASTLNDGAAALVLMTADAAKRLNVTPLARIVAFADAAVEPIDFPIAPVYAASMVLKDVGLKKEDIAMWEVNEAFSLVVLANIKMLEIDPQKVNINGGAVSLGHPIGMSGARIVGHLTHALKQGEYGLASICNGGGGASAMLIQKL,soluble
8,GPGSMSRTQTSSKSVPKNIAVYCRVRPPVPNEKGHTFQNISYDDSDSRAIAVARKSGTKALEKTYLFNRVFRPTATQKDVYETFAKGAVDAAFDGQHGVLFVYGQTGSGKTFTISNDEPNNEGVLQRSMRDIWNRIASDTANDYSCSVSYVQLYNEILTDLLDDAKGKVRIQMGSEGRGDVVMVSDSTGMAIEREVKDYKSTMACFQVGLARKEMASTSMNSTSSRSHTIFTLNIVKAKKVVAVTVGTEAEGPTIALEGRLVLCDLAGSERVSKTHAEGKTLDEATHINRSLLTLGKVVTALTDNAQHAPFRESKLTRILQYSLMGNGNTSIIVNISPSDDNTEESLSAILFGQRASQIKQDAKRHEVLDYKALYMQLMAELDNKNDKTLEEALEEERGVYEERISALDEEMKLLSDENAMLRNENKQLRQYVPADRLKLIDETPSSGVSGANGEVVSGGWAKVNQDLRKLVQQRDERLKVISDERVRLALVVAEEKRKCFQLAQKMRSFAMRYKMEREQSTQRQEELCTELATLKGTDYLSAVGSFDATASPGSPNYPRENEEFNDAESAQAQIRALRAERMELMVYQAKAANAIRKLVKERDAAQRKVA,soluble
9,MGSDKIHHHHHHMSADTLFPKLDIPATIAAGPGPGNTDARVLAAFSGAGLADHMHGDVLRGMVECKLMLRRIWGTDNIHTFGVAGTGWSGLDVMFSAVMPGDKVVVFTNGTFSGIDGLTVRMKAATAEELAANPLDPRPASVVIVDIPHGQSVTGEIVETALAEHKPKWAAMAHWETGSGRINDIAGFSAACERHDVMGLVDAVSSLGVEDFRIDDFPGVHGWASCPQKGICCLPLTYAPVSFTDRYIQTLRATGTRSFVHHPILEARHWGVIEGKDVDKGTYHRTHSAYAVAAFHEALRITLQQGVANRAKDYAYHEAALRRAVEALGCEVTSNMTSLVVLNLPGDLRGREMELVQNCRARNFGIWPTLSAPVQVRIGILNLLSRAAVTDIVTRFAEAIRELGGAGDEATALAALDAHYDNAIAAE,not soluble
10,GMNSPKNSLYEEKSGHYYNAVNPNLLKHIKKEWKEVLDIGCSSGALGAAIKENGTRVSGIEAFPEAAEQAKEKLDHVVLGDIETMDMPYEEEQFDCVIFGDVLEHLFDPWAVIEKVKPYIKQNGVILASIPNVSHISVLAPLLAGNWTYTEYGLLDKTHIRFFTFNEMLRMFLKAGYSISKVDRVYVDHKMYEPLIEELYGICKKYRLGSGFMAETVVFQYIIEAEKSQL,soluble
11,MGSDKIHHHHHHMLELGQTPNAAPDAAPADLIKDTTDATFMADVVDASQTTPVIVDFWAPWCGPCKTLGPQLEAAVTAAKGKVRMVKVNVDENQQIAAQLRVQSIPMVYAFVDGQPIDGFQGAVPESQIKDFVTKLAAMSKEDGGLAEALEAAEEMLSMGEHDDAAQTFAAILGEEPENAAAMGGLARAHLAMGQVDEAEQLLSTAPDAIFNAPELEAVRAQIELARQAESAGPLAELQAAVDANPDDHAARFELAQALHANGDVEQAVDQLLELFRRDREWEDAKAKTQLFTIFDALPPQDPIALTGRRRLSSMIFA,not soluble
12,MGSDKIHHHHHHMNVLITGMNGTVAPVLADVFRSHHYDITAWDRSVVSTTDSAVMEAFIDRVQPDLLLHIGMGPAEFAETLARLSFERNIPFLFTSTASVYSDEQKGPHDPAIVPAATDEYGAYKRTCERLIQAVNPDAYIVRIGWQIGQAAGSNNMIDYLERHAIAGPIPASTQWYPSCAFLEDTAQTLYTIVTTYTPGLYLANGNASHSFFDIVTALNILHGSKWHITEDNSMTRDDRMTDSRVVIRPISEHLSFVH,not soluble
13,MITISNEDNMILMSRYPDKYFDLAIVDPPYGILNKTKRGGDYKFNMNEYSQWDIKPDQTYFNELFRVSKNQIIWGGNYFGELWLRSEYNKGFIIWDKNQPETLNNFSMAEMAWSSFDRPSKIFRFSVRKNRNKTHPTQKPVELYQWLLKMYAKQGDKILDTHLGSGTLAIACCIAQFDLTACEINSDYYQQSIEKIKNNLPEARISFGHPGYCIIE,not soluble
14,MGSDKIHHHHHHMTHEEHHAAKTLGIGKAIAVLTSGGDAQGMNAAVRAVVRVGIFTGARVFFVHEGYQGLVDGGDHIKEATWESVSMMLQLGGTVIGSARCKDFREREGRLRAAYNLVKRGITNLCVIGGDGSLTGADTFRSEWSDLLSDLQKAGKITDEEATKSSYLNIVGLVGSIDNDFCGTDMTIGTDSALHRIMEIVDAITTTAQSHQRTFVLEVMGRHCGYLALVTSLSCGADWVFIPECPPDDDWEEHLCRRLSETRTRGSRLNIIIVAEGAIDKNGKPITSEDIKNLVVKRLGYDTRVTVLGHVQRGGTPSAFDRILGSRMGVEAVMALLEGTPDTPACVVSLSGNQAVRLPLMECVQVTKDVTKAMDEKKFDEALKLRGRSFMNNWEVYKLLAHVRPPVSKSGSHTVAVMNVGAPAAGMNAAVRSTVRIGLIQGNRVLVVHDGFEGLAKGQIEEAGWSYVGGWTGQGGSKLGTKRTLPKKSFEQISANITKFNIQGLVIIGGFEAYTGGLELMEGRKQFDELCIPFVVIPATVSNNVPGSDFSVGADTALNTICTTCDRIKQSAAGTKRRVFIIETMGGYCGYLATMAGLAAGADAAYIFEEPFTIRDLQANVEHLVQKMKTTVKRGLVLRNEKCNENYTTDFIFNLYSEEGKGIFDSRKNVLGHMQQGGSPTPFDRNFATKMGAKAMNWMSGKIKESYRNGRIFANTPDSGCVLGMRKRALVFQPVAELKDQTDFEHRIPKEQWWLKLRPILKILAKYEIDLDTSDHAHLEHITRKRSGEAAV,not soluble
15,MSSAHNAYNAGIMQKTGKAFADEFFAEENQVVHESNAVVLVLMKSDEIDAIIEDIVLKGGKAKNPSIVVEDKAGFWWIKADGAIEIDAAEAGELLGKPFSVYDLLINVSSTVGRAYTLGTKFTITSELMGLDRALTDI,soluble
16,MASNPNDLPDFPEHEYAATQQVGEGVINGDLYLTSASGAIQKGTNTKVTLEPATSYMKAYYAKFGNLDAAKRDPDVQPPVLDPRRATYVREATTDQNGRFDFDHIPNGTYYISSELTWSAQSDGKTITEGGTVTKLVTVSGSQPQKVLLTR,soluble
17,MNLYRSRNFYARIRGDRALFTNPATKGGSERSSYSVPTRQALQGIIDGIYHKPTFTNVITEVKVVNQIQTELHGVRALLHDYSADLSYVSYLSDVEYLVKFHFIWNENREDLIQDRLPKKHEAIMERSIRKGGRRDIFLGTRECFGLVDEISQEEYETIPSYYNGVTIDLGIMFHSFAYPTSKDTPLKSYFTKTVMENGAIKFKPQSECEIVNTLSSYAFKSLGQLKSVDDEYVDDEYEEYEAMEKGEG,soluble
18,MGSDKIHHHHHHMISEISHDVIWDLYEGEDYRDKILAEKWDVVFGEKILEMEDTLFVQSLRELELALKYAAARKDLETIKARFNLLLYTPELQGAKIKEILFQVLKFYNSFSIFALVSEKGVHRHAYVDFVTGGNYLSLIYHEDLPLNINSHTVFIDDVPPDFSPAGLGGRKIILGMDSTPKNNIPFVEIPPLRERKMDIPYMLDGVIKSLQFQGKTVKIDDDLTKLLIEYHWPGNTQEFLEKVYEIITLENPVDQAMKIASGIDEIKGLNLKEFVDSLVEFVEKKVIKKALEENEGNRKKVCEVLNMNYKTLSYKMKKYGLT,not soluble
19,AHHHHHHGSEIYEGKAKKMIPLDEDKFIMEFKDDATAFDGVKKAKFVGKGWLNAQISAKLFKLLEDHGIKTHFIGVAGGNRLIVERLEMYPIEVVVRNVVAGSLKKRLPLPEGYELPEPIVELYYKSDELHDPMINYYHARILGISEEEIKEMERIALKVNEILKKFFREKGIILVDFKLEFGKNKKGEIVLADEISPDTCRFWDVETKKSLDKDVFRFDKGDLIEAYKELYKRLIGEEPQI,not soluble
20,MGHHHHHHSHMSSYHCAMNNENARLLTFQTWPLTFLSPTDLAKAGFYYIGPGDRVACFACGGKLSNWEPKDNAMSEHLRHFPKCPFIENQLQDTSRYTVSNLSMQTHAARFKTFFNW,not soluble
21,MGSDKIHHHHHHMKKLIAGVLVLTILGSCGNKKTNIDPFASITQEVDSIRHKADSIHQEELPEEPKPTEADESFDDFIYNFASDDALQRQRVKFPLPYYKGDEKTNIEERNWKHDDLFTKQHYYTLLFDKEEDMDLVGDTSLTSVQVEWIFVKTRMVKKYYFERIKGAWILEAINLRPVERNENEDFVEFFSHFAADSLFQSRRVQEPLAFVTSDPDDDFSILETSLDLNQWFAFKPALPTDRLSNINYGQRNDDNSPTKILALKGIGNGFSNILYFRRKAGEWQLYKFEDTSI,not soluble
22,MAKQELSAREAVTEAKCYLNNAKEILREKGAKTEGYYRDSKYVKMAGDTAYSGVLFVLDHYFGEKAKGRKDVDWYRINLSKEDRKMLDSFTAVYEQLHL,not soluble

# Reference: the DeepSol protein solubility set
